Common to all, as to details: both partners purified
Assay [1] deals with T1, semi-synthetic Atg3 K19ac-K48ac (Saccharomyces cerevisiae, UniProt P40344 1-310, Gln27 mutated to Cys27 | S54C, acetyl-lysine at K19 and K48).
T1 construct: Atg3 of yeast Saccharomyces cerevisiae, Atg3(1-310), 310 amino acids, with Gln27 and Ser54 mutated to Cys for ligation; also called K19/K48-diacetylated Atg3; 2ac
T1 sequence (looked up): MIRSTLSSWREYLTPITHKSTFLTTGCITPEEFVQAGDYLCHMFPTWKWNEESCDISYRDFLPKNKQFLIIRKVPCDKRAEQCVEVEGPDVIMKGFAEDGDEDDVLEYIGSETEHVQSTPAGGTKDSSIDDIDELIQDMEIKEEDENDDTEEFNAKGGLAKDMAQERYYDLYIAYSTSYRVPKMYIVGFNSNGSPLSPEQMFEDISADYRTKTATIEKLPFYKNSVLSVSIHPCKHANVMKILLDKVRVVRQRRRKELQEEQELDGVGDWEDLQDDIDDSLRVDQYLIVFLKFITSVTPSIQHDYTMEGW
Briefly: SPR; Biacore T200, 25 °C; Atg3 immobilised by amine coupling on CM5 chip (400 RU); Atg8 injected at 30 μl/min up to 3,200 nM; 10 mM phosphate buffer, 2.7 mM KCl, 137 mM NaCl, 0.05% surfactant P20, pH 7.4.

For assay [2], the target named is T2, WT Atg3 (bacterially expressed and purified) (Saccharomyces cerevisiae, UniProt P40344 1-310).
T2 construct: Atg3, E2-like enzyme of yeast Saccharomyces cerevisiae (310 amino acids); 'the region coding WT Atg3' inserted into pGEX-6P-1; GST excised with PreScission protease; residues of the vector may remain at the N-terminus (surmised); also called Atg3 WT; E. coli expressed WT Atg3; source: E. coli BL21 (DE3), purified (glutathione-Sepharose 4B, PreScission protease, Mono Q, Superdex 200)
T2 sequence (looked up): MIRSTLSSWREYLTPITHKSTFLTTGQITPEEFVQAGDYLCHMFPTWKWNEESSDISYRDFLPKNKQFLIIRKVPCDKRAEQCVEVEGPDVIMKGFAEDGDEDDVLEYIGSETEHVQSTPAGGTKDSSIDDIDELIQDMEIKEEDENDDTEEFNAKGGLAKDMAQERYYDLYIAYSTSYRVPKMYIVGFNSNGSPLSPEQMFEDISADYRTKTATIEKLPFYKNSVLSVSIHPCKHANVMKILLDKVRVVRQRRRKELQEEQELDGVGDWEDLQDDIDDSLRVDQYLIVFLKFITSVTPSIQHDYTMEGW
Described as above.

Assay [3] concerns the target T1, semi-synthetic Atg3 K19ac-K48ac. Briefly: MST; Monolith NT.115 (20% LED, 20% MST power); Atg8 labelled with Dye NT-647 NHS, Atg3 at different concentrations; 50 mM Tris-HCl pH 7.4, 150 mM NaCl, 10 mM MgCl2, 0.05% Tween-20; apparent KD, mean of three independent experiments.
Assay [4] addresses T2, WT Atg3 (bacterially expressed and …). The description is as above.

In article PMC5473643, “A semisynthetic Atg3 reveals that acetylation promotes Atg3 membrane binding and Atg8 lipidation” (Nature Communications, 2017) one finds Kd data, which are given here for one molecule.

B1: Atg8 (bacterially expressed and purified) (natural protein, yeast, UniProt P38182 1-117, looked up)
chain: MKSTFKSEYPFEKRKAESERIADRFKNRIPVICEKAEKSDIPEIDKRKYLVPADLTVGQFVYVIRKRIMLPPEKAIFIFVNDTLPPTAALMSAIYQEHKDKDGFLYVTYSGENTFGR
notes: Atg8 of yeast; 'the region coding ; Atg8' inserted into pGEX-6P-1; In the MST experiment this Atg8 was labelled on primary amines with Dye NT-647 NHS; also called recombinant Atg8; purified Atg8; source: E. coli BL21 (DE3), purified (glutathione-Sepharose 4B, PreScission protease, Mono Q, Superdex 200)
B1: the Kd in assay [1] came out at 650 ± 70 nM; in assay [2] it was 730 ± 50 nM; in assay [3], 490 ± 80 nM; in assay [4], 520 ± 70 nM.
